In patent US20230235040A1:

T1: hu-IL-36β (human IL-36β, N-terminally truncated active form R5-E157) (human)
T1 sequence: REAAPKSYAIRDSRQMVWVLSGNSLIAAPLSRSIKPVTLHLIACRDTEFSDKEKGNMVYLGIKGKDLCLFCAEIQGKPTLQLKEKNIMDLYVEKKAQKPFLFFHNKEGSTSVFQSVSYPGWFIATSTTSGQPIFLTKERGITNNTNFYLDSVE


Columns and labels:
Assay in all cases: ELISA, yeast Fab supernatant, anti-Fab-HRP
[1] = molecular target: T1, hu-IL-36β (human IL-36β, N-terminally truncated active form R5-E157) (human)
[2] = molecular target: hu-IL-36α (human IL-36α, N-terminally truncated active form K6-F158) (human) (UniProt Q9UHA7)
hu-IL-36α (human IL-36α, N-terminally truncated active form K6-F158) (human), sequence (Q9UHA7 6-158 limits assumed): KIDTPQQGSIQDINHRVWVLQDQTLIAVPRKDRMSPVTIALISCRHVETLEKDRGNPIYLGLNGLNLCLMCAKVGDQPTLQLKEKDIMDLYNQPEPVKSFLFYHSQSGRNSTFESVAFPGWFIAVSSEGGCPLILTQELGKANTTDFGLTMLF

[3] = molecular target: hu-IL-36γ (human IL-36γ, N-terminally truncated active form S18-D169) (human) (UniProt Q9NZH8)
hu-IL-36γ (human IL-36γ, N-terminally truncated active form S18-D169) (human), sequence (Q9NZH8 18-169 limits assumed): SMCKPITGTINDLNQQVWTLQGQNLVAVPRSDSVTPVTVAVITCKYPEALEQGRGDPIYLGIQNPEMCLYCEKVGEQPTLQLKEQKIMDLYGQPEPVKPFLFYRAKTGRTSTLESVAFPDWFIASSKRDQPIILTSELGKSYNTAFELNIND

ELISA OD450 [1] [OD450]	ELISA OD450 [2] [OD450]	ELISA OD450 [3] [OD450]	Binder
0.0604			mAb2.0 Fab (yeast clone culture supernatant) (Fab, V domains shown) VH: QLQLQESGPGLVKPSETLSLTCTVSGGSISTSSYYWGWIRQPPGKGLEWIGSIYYTGNTYYNPSLKSRVTISVDTSKNQFSLKLSSVTAADTAVYYCARVRYGVGVPRYFDPWGQGTLVTVSS VL: QSVLTQPPSVSGAPGQRVTISCTGSSSNIGAHYDVHWYQQLPGTAPKLLIYGNDNRPSGVPDRFSGSKSGTSASLAITGLQAEDEADYYCQSYDYSLSGYVFGGGTKLTVL
	0.0638	0.0656	mAb6.0 Fab (yeast clone culture supernatant) (Fab, V domains shown) VH: QLQLQESGPGLVKPSETLSLTCTVSGGSITSSNYYWGWIRQPPGKGLEWIGSIDYTGSTYYNPSLKSRVTISVDTSKNQFSLKLSSVTAADTAVYYCARGKYYETYLGFDVWGQGTLVTVSS VL: QSVLTQPPSVSGAPGQRVTISCTGSSSNIGAGYDVHWYQQLPGTAPKLLIYGNTNRPSGVPDRFSGSKSGTSASLAITGLQAEDEADYYCQSYDISLSGWVFGGGTKLTVL
0.0513			mAb4.0 Fab (yeast clone culture supernatant) (Fab, V domains shown) VH: QLQLQESGPGLVKPSETLSLTCTVSGGSIGSRSYYWGWIRQPPGKGLEWIGSIHYSGTTYYNPSLKSRVTISVDTSKNQFSLKLSSVTAADTAVYYCARVAPSYPRVFDYWGQGTLVTVSS VL: QSVLTQPPSVSGAPGQRVTISCTGSSSNIGAGYDVHWYQQLPGTAPKLLIYGNRNRPSGVPDRFSGSKSGTSASLAITGLQAEDEADYYCQSYDYSLRVYVFGGGTKLTVL
0.0523			mAb1.0 Fab (yeast clone culture supernatant) (Fab, V domains shown) VH: QVQLVESGGGVVQPGRSLRLSCAASGFSFSAYAMHWVRQAPGKGLEWVAVISYDGTNEYYADSVKGRFTISRDNSKNTLYLQMNSLRAEDTAVYYCARGIRIFTSYFDSWGQGTLVTVSS VL: QSVLTQPPSVSGAPGQRVTISCTGSSSNIGAHYDVHWYQQLPGTAPKLLIYSNNNRPSGVPDRFSGSKSGTSASLAITGLQAEDEADYYCQSYDYSLRGYVFGGGTKLTVL
0.11			mAb3.0 Fab (yeast clone culture supernatant) (Fab, V domains shown) VH: QLQLQESGPGLVKPSETLSLTCTVSGGSISSTSYYWGWIRQPPGKGLEWIGSIHYSGNTYYNPSLKSRVTISVDTSKNQFSLKLSSVTAADTAVYYCARVHYGGYIPRRFDHWGQGTLVTVSS VL: QSVLTQPPSVSGAPGQRVTISCTGSSSNIGAGYDVHWYQQLPGTAPKLLIYGNTNRPSGVPDRFSGSKSGTSASLAITGLQAEDEADYYCQSYDYSLRGYVFGGGTKLTVL
	0.0698	0.073	mAb8.0 Fab (yeast clone culture supernatant) (Fab, V domains shown) VH: QVQLVQSGAEVKKPGSSVKVSCKASGGTFSNYAISWVRQAPGQGLEWMGGILPILGTVDYAQKFQGRVTITADESTSTAYMELSSLRSEDTAVYYCAREPWYRLGAFDVWGQGTLVTVSS VL: DIQMTQSPSSLSASVGDRVTITCRASQTIYKYLNWYQQKPGKAPKLLIYAASSLQSGVPSRFSGSGSGTDFTLTISSLQPEDFATYYCQQYSSIPYTFGQGTKVEIK
	0.0604	0.0724	mAb7.0 Fab (yeast clone culture supernatant) (Fab, V domains shown) VH: QVQLVESGGGVVQPGRSLRLSCAASGFTFSSYGMHWVRQAPGKGLEWVAVISYGGSERYYADSVKGRFTISRDNSKNTLYLQMNSLRAEDTAVYYCAREPWYSSRGWTGYGFDVWGQGTLVTVSS VL: EIVLTQSPGTLSLSPGERATLSCRASQSVSSNYLAWYQQKPGQAPKLLIYSASSLQSGVPSRFSGSGSGTDFTLTISSLQPEDFATYYCQQTYSYPPTFGQGTKVEIK
